# Reference: article PMC5887372 (Nucleic Acids Research, 2018)
# Positions count from the first letter of the chain named. In names and notes the source's numbering stands.
# B1: DNMT1_351 (aa: 351–1616) (domain or fragment)
# chain: PKCIQCGQYLDDPDLKYGQHPPDAVDEPQMLTNEKLSIFDANESGFESYEALPQHKLTCFSVYCKHGHLCPIDTGLIEKNIELFFSGSAKPIYDDDPSLEGGVNGKNLGPINEWWITGFDGGEKALIGFSTSFAEYILMDPSPEYAPIFGLMQEKIYISKIVVEFLQSNSDSTYEDLINKIETTVPPSGLNLNRFTEDSLLRHAQFVVEQVESYDEAGDSDEQPIFLTPCMRDLIKLAGVTLGQRRAQARRQTIRHSTREKDRGPTKATTTKLVYQIFDTFFAEQIEKDDREDKENAFKRRRCGVCEVCQQPECGKCKACKDMVKFGGSGRSKQACQERRCPNMAMKEADDDEEVDDNIPEMPSPKKMHQGKKKKQNKNRISWVGEAVKTDGKKSYYKKVCIDAETLEVGDCVSVIPDDSSKPLYLARVTALWEDSSNGQMFHAHWFCAGTDTVLGATSDPLELFLVDECEDMQLSYIHSKVKVIYKAPSENWAMEGGMDPESLLEGDDGKTYFYQLWYDQDYARFESPPKTQPTEDNKFKFCVSCARLAEMRQKEIPRVLEQLEDLDSRVLYYSATKNGILYRVGDGVYLPPEAFTFNIKLSSPVKRPRKEPVDEDLYPEHYRKYSDYIKGSNLDAPEPYRIGRIKEIFCPKKSNGRPNETDIKIRVNKFYRPENTHKSTPASYHADINLLYWSDEEAVVDFKAVQGRCTVEYGEDLPECVQVYSMGGPNRFYFLEAYNAKSKSFEDPPNHARSPGNKGKGKGKGKGKPKSQACEPSEPEIEIKLPKLRTLDVFSGCGGLSEGFHQAGISDTLWAIEMWDPAAQAFRLNNPGSTVFTEDCNILLKLVMAGETTNSRGQRLPQKGDVEMLCGGPPCQGFSGMNRFNSRTYSKFKNSLVVSFLSYCDYYRPRFFLLENVRNFVSFKRSMVLKLTLRCLVRMGYQCTFGVLQAGQYGVAQTRRRAIILAAAPGEKLPLFPEPLHVFAPRACQLSVVVDDKKFVSNITRLSSGPFRTITVRDTMSDLPEVRNGASALEISYNGEPQSWFQRQLRGAQYQPILRDHICKDMSALVAARMRHIPLAPGSDWRDLPNIEVRLSDGTMARKLRYTHHDRKNGRSSSGALRGVCSCVEAGKACDPAARQFNTLIPWCLPHTGNRHNHWAGLYGRLEWDGFFSTTVTNPEPMGKQGRVLHPEQHRVVSVRECARSQGFPDTYRLFGNILDKHRQVGNAVPPPLAKAIGLEIKLCMLAKARESASAKIKEEEAAKD
# B2: DNMT1 RFTS domain (aa: 351–600) (domain or fragment)
# chain: PKCIQCGQYLDDPDLKYGQHPPDAVDEPQMLTNEKLSIFDANESGFESYEALPQHKLTCFSVYCKHGHLCPIDTGLIEKNIELFFSGSAKPIYDDDPSLEGGVNGKNLGPINEWWITGFDGGEKALIGFSTSFAEYILMDPSPEYAPIFGLMQEKIYISKIVVEFLQSNSDSTYEDLINKIETTVPPSGLNLNRFTEDSLLRHAQFVVEQVESYDEAGDSDEQPIFLTPCMRDLIKLAGVTLGQRRAQAR
# B3: DNMT1 RFTS domain E384A (domain or fragment)
# chain: B2 chain with E34A
# B4: DNMT1 RFTS domain E397A (domain or fragment)
# chain: B2 chain with E47A
# B5: UHRF1 UBL domain (aa: 1–76) (domain or fragment)
# chain: MWIQVRTMDGRQTHTVDSLSRLTKVEELRRKIQELFHVEPGLQRLFYRGKQMEDGHTLFDYEVRLNDTIQLLVRQS
# Key:
# [1] = target: T1, ubiquitin (UniProt P0CG48 1-76); experiment: NMR titration
# [2] = target: T1, ubiquitin; experiment: ITC
# [3] = target: DNMT1 RFTS domain Y399G (human, UniProt P26358 351-600, Y399G); experiment: ITC
# [4] = target: DNMT1 RFTS domain I442G (human, UniProt P26358 351-600, I442G); experiment: ITC
# [5] = target: B3; experiment: ITC
# [6] = target: B4; experiment: ITC
# [7] = target: B2; experiment: ITC
# [8] = target: DNMT1 RFTS domain E384A/E397A (human, UniProt P26358 351-600, E384A | E397A); experiment: ITC
binder,measurement,setting,value
B1,binding result,[1],binds
B2,Kd,[2],26 µM
B3,fold reduction of binding against wild-type RFTS,[2],~2 fold
B4,fold reduction of binding against wild-type RFTS,[2],~2 fold
B5,binding result,[3],binds
same,binding result,[4],binds
same,binding result,[5],binds
same,binding result,[6],binds
same,Kd,[7],41.3 µM
same,binding result,[8],binds
